# Assays:
# [1] = biological target: T1, fibrinogen (Homo sapiens, UniProt P02671+P02675+P02679); test: A domain binding to fibrinogen
# T1 sequence (P02671 20-629 limits assumed): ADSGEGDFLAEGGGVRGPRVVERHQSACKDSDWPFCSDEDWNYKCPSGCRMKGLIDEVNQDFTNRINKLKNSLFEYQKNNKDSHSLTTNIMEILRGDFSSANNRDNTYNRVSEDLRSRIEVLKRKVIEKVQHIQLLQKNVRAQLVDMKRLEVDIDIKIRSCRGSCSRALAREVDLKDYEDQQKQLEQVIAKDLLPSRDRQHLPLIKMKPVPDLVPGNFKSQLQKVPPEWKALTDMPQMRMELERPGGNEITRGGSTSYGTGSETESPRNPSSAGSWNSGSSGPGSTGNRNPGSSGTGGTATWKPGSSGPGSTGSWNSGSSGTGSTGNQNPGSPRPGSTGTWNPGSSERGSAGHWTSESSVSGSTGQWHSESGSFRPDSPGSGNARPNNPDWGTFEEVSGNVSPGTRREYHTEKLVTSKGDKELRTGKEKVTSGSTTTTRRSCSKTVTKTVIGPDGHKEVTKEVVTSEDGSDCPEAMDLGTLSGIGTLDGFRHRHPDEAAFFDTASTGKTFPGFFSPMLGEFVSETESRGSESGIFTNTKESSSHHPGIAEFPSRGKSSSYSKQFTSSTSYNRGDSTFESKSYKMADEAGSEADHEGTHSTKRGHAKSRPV
# T1 sequence (P02675 31-491): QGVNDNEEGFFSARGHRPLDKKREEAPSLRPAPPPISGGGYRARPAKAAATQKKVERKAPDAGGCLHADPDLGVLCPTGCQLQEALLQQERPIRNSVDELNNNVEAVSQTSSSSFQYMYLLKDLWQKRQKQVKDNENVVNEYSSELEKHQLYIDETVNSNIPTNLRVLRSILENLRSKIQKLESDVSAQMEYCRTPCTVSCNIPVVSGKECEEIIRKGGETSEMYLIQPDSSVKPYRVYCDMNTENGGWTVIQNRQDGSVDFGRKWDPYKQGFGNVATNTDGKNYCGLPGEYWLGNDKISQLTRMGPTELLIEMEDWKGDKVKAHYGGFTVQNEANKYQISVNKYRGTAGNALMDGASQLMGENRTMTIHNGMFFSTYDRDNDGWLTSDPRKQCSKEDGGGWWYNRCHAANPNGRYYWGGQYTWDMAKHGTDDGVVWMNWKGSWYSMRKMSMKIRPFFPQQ
# T1 sequence (P02679 27-453): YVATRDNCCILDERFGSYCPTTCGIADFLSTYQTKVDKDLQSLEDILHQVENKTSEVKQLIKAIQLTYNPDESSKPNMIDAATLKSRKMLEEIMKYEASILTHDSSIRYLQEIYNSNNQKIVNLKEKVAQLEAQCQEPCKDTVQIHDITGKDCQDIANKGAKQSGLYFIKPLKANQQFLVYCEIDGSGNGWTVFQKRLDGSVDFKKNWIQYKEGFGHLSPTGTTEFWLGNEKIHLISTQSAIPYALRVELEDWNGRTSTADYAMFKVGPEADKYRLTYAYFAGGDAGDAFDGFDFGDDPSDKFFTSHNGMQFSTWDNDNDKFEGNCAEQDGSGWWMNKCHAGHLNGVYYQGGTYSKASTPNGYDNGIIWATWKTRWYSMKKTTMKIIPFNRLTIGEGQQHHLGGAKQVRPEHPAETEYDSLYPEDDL
# [2] = biological target: T2, EAiC3b (erythrocytes coated with iC3b) (Homo sapiens, UniProt P01024); test: Erythrocyte binding assay, EAiC3b on immobilized proteins or peptides
# T2 construct: EAiC3b (erythrocytes coated with iC3b) were generated by treating EAC3b with purified human factors H and I; tissue Sigma Chemical Co. (C5-deficient human serum); host or cells: human serum C3 deposited on IgM-coated erythrocytes
# T2 sequence (P01024 749-1303 limits assumed): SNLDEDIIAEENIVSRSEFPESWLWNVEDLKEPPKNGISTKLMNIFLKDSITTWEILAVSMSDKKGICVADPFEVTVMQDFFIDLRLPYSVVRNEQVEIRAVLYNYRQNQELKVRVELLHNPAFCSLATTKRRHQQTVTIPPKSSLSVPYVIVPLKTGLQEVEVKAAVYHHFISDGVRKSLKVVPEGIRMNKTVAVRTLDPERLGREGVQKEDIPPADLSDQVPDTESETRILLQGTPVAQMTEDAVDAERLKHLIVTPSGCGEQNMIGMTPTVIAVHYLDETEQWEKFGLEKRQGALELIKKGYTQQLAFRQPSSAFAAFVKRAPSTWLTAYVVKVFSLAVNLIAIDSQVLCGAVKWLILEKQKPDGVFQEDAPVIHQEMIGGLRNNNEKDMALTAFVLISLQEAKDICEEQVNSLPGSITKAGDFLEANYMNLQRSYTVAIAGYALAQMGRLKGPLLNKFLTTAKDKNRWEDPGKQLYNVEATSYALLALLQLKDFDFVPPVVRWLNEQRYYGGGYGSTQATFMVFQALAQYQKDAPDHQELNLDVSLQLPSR
# T2 sequence (P01024 23-667 partner limits assumed): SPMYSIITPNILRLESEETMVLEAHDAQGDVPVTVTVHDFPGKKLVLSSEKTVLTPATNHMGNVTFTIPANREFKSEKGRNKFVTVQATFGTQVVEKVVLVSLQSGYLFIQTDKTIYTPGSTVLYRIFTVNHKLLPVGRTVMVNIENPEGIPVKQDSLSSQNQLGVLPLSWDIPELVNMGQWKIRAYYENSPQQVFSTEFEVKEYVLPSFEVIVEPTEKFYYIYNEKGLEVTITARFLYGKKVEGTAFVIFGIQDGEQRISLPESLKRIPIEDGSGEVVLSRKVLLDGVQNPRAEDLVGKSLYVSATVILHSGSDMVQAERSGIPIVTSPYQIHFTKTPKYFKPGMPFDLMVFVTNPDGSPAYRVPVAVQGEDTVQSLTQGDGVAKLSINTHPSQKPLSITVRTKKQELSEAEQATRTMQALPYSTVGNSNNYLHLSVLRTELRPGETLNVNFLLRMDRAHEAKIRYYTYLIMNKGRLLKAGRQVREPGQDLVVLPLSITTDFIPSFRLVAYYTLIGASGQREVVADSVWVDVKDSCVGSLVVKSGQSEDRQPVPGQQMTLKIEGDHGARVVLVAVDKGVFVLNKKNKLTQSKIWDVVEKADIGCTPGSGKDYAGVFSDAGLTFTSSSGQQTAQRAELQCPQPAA
# T2 sequence (P01024 1321-1663 partner limits assumed): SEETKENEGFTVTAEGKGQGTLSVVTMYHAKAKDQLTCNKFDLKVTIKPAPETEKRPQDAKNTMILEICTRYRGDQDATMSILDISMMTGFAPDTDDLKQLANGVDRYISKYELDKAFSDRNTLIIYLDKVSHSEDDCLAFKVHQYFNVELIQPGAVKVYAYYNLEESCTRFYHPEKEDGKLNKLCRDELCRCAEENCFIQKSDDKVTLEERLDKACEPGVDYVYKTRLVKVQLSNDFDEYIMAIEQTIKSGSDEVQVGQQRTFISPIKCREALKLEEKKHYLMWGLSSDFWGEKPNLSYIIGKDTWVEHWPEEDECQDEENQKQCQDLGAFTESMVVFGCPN
# Method: Erythrocytes (E) coated with rabbit anti-E IgM (EA) or C3b (EAC3b) were prepared as described by Dana et al. (J. Immunol. 73:153, 1984). EAiC3b (erythrocytes coated with iC3b) were generated by treating EAC3b with purified human factors H and I, or alternatively prepared from EA using C5-deficient human serum (Sigma Chemical Co., St. Louis, Mo.). EAiC3b cells were washed and stored in isotonic veronal-buffered saline (VBS^2+), pH 7.4, containing 0.15 mM calcium-1 mM magnesium (MgCl2+CaCl2) and 1 mg/ml Soybean Trypsin Inhibitor (STI; Worthington Biochemical Co., Freehold, N.J.) at 1.5×10^8 cells/ml. EA, EAC3b or EAiC3b were labeled with 5-(and-6)-carboxy fluorescein (Molecular Probes, Eugene, Oreg.) as described by Michishita et al. (Cell 72:857, 1993).
# Immobilization of recombinant proteins and peptides: Purified recombinant A-domain was added to Immulon-2 96-well microtiter plates (Dynatech) overnight. Wells were then washed once with phosphate-buffered-saline, pH 7.4 without metals, and blocked with 1% BSA at room temperature (RT) for one hour, followed by two washings with buffer A (composed of 60% GVBS:VBS^2+ mixed in a 1:3 ratio; Arnaout et al., in Complement Receptor Type 3 at 602-615, Academic Press, FL) containing 1 mM MnCl2 or MgCl2+CaCl2. All the peptides were stocked at 1 mg/ml in water and similarly adsorbed to Immulon-2 96-well plates. Binding of the anti-CD11b mabs to the coated rA-domain was measured by ELISA and read using a plate reader (Molecular Dynamics).
# Erythrocyte binding assays: Fluoresceinated EAiC3b, EAC3b or EA were resuspended to 1.5×10^8/ml in buffer A, and added […] to wells containing immobilized proteins or peptides in a total volume of […]. The plates were then briefly centrifuged to settle the erythrocytes, and allowed to incubate at 37° C. for 15 minutes in a humidified incubator with 5% CO2. For the inhibition studies, E were preincubated with each recombinant protein or pure peptide in the presence of 2% BSA for 5 minutes at RT and added to wells coated with immobilized protein or peptide without washing, unless otherwise indicated. At the end of the binding reactions, wells were washed, examined briefly by light microscopy then solubilized with 1% SDS-0.2 N NaOH. Fluorescence was quantified (excitatory wavelength, 490 nm, emission wavelength, 510 nm) using a SLM 8000 fluorometer (SLM Instruments, Urbana, Ill.). In experiments where the effects of individual divalent cations were measured, Ca^2+ and Mg^2+ were replaced with metal-free buffers or with buffers containing each cation at […], unless otherwise indicated. The effect of temperature was evaluated in the presence of 1 mM MnCl2 at 37° C. and at 4° C.
substance,measurement,setting,value
"r11bA: recombinant human CD11b A domain (Cys128 to Glu321), expressed as GST fusion protein, used as such or after thrombin cleavage",binding of the A domain to fibrinogen,[1],binds
same,binding of the A domain to iC3b,[2],binds
same,"EAiC3b binding to rA-domain with MnCl2, MgCl2 or MgCl2 plus CaCl2","[2]; 1 mM MnCl2, 1 mM MgCl2 or 1 mM MgCl2 and 0.15 mM CaCl2",supported
same,temperature dependency of EAiC3b binding to rA-domain,"[2]; 37° C. and 4° C., 1 mM MnCl2",temperature-independent
same,direct binding of EAiC3b to immobilized protein or peptide,"[2]; 37° C., divalent cations",bound
same,EAiC3b binding to rA-domain with CaCl2 alone,[2]; CaCl2 alone (0.15-1 mM),ineffective
same,"EAiC3b binding to rA-domain, divalent cations omitted or EDTA included",[2]; no divalent cations or EDTA,No specific binding
